In patent publication US20110020218A1 (PIERRE FABRE MEDICAMENT, published 2011):
Substitutions are numbered along the chain they refer to. Names may count otherwise.

B1: anti-CXCR4 Mab 414H5 (antibody, V domains shown)
VH: EVKLVESGGGLVQPGGSLRLSCTTSGFTFTDYYMSWVRQSPGKALEWLTFIRNKANGYTTEYSASVKGRFTISRDNSQSILYLQMNTLRAEDSATYYCARDIPGFAYWGQGTLVTVSA
VL: DIVMSQSPSSLAVSAGEKVTMSCKSSQSLYNSRTRKNYLAWYQQKPGQSPKLLIYWASTRESGVPDRFTGSGSGTDFTLTITSVQAEDLAVFYCKQSYNLRTFGGGTKLEIK
B2: anti-CXCR4 chimeric Mab c414H5 (antibody, human IgG1, kappa, V domains shown)
VH: B1 VH
VL: DIVMSQSPSSLAVSAGEKVTMSCKSSQSLYNSRTRKNYLAWYQQKPGQSPKLLIYWASTRESGVPDRFTGSGSGTDFTLTITSVQAEDLAVFYCKQSYNLRTFGGGTKLEIKR
notes: they may be whole chains; also called chimeric 414H5
B3: CXCR4/Rluc fusion protein (receptor, UniProt P61073 1-352, looked up)
chain: MEGISIYTSDNYTEEMGSGDYDSMKEPCFREENANFNKIFLPTIYSIIFLTGIVGNGLVILVMGYQKKLRSMTDKYRLHLSVADLLFVITLPFWAVDAVANWYFGNFLCKAVHVIYTVNLYSSVLILAFISLDRYLAIVHATNSQRPRKLLAEKVVYVGVWIPALLLTIPDFIFANVSEADDRYICDRFYPNDLWVVVFQFQHIMVGLILPGIVILSCYCIIISKLSHSKGHQKRKALKTTVILILAFFACWLPYYIGISIDSFILLEIIKQGCEFENTVHKWISITEALAFFHCCLNPILYAFLGAKFKTSAQHALTSVSRGSSLKILSKGKRGGHSSVSTESESSSFHSS
notes: whole, on cells; Transiently expressed in HEK293 cells for BRET; also called CXCR4 tagged with luciferase; not shown: Renilla reniformis luciferase (Rluc)
B4: humanized antibody Hz515H7 VH1 D76N VL2 (antibody, human IgG1, kappa, V domains shown)
VH: EVQLVESGGGLVQPGRSLRLSCTASGFTFTDNYMSWVRQAPGKGLEWVGFIRNKANGYTTEYAASVKGRFTISRDNSKSIAYLQMNSLKTEDTAVYYCARDVGSNYFDYWGQGTLVTVSS
VL: DIVMTQSPSSLAVSLGERATMSCKSSQSLFNSRTRKNYLAWYQQKPGQSPKLLIYWASARDSGVPARFTGSGSETYFTLTISRVQAEDLAVYYCMQSFNLRTFGQGTKVEIKR
B5: humanized antibody Hz515H7 VH1 VL1 (antibody, human IgG1, kappa, V domains shown)
VH: B4 VH with N76D
VL: DIVMTQSPDSLAVSLGERATINCKSSQSLFNSRTRKNYLAWYQQKPGQPPKLLIYWASTRESGVPDRFSGSGSGTDFTLTISSLQAEDVAVYYCMQSFNLRTFGQGTKVEIKR
notes: Human IgG1/kappa format; no back mutations; also called 515H7 VH variant 1 VL variant 1
B6: anti-CXCR4 chimeric Mab c515H7 (antibody, human IgG1, kappa, V domains shown)
VH: EVNLVESGGGLVQPGGSLRLSCATSGFTFTDNYMSWVRQPPGKALEWLGFIRNKANGYTTDYSASVRGRFTISRDNSQSILYLQMNALRAEDSATYYCARDVGSNYFDYWGQGTTLTVSS
VL: B4 VL with T5S, L15A, R18K, A19V, Q105G, V109L
notes: they may be whole chains; also called chimeric 515H7
B7: humanized antibody Hz515H7 VH1 D76N VL2.2 (antibody, human IgG1, kappa, V domains shown)
VH: B4 VH
VL: B4 VL with S9D, S49P, A66D, L89V
B8: hz515H7 VH1 VL2 (antibody, human IgG1, kappa)
heavy: not shown
light: DIVMTQSPSSLAVSLGERATMSCKSSQSLFNSRTRKNYLAWYQQKPGQSPKLLIYWASARDSGVPARFTGSGSETYFTLTISRVQAEDLAVYYCMQSFNLRTFGQGTKVEIKRTVAAPSVFIFPPSDEQLKSGTASVVCLLNNFYPREAKVQWKVDNALQSGNSQESVTEQDSKDSTYSLSSTLTLSKADYEKHKVYACEVTHQGLSSPVTKSFNRGEC
notes: human IgG1/kappa format; also called VH variant 1 combined with variant 2 of VL
B9: hz515H7 VH1 combined with the chimeric VL (cVL) (antibody, human IgG1, kappa)
heavy: not shown
VL: B8 light with T5S, L15A, R18K, A19V, Q105G, V109L
notes: Humanized VH variant with the chimeric (murine VL, human Ckappa) light chain of c515H7; IgG1/kappa; also called VH1 cVL
B10: humanized antibody Hz515H7 VH1 D76N VL2.3 (antibody, human IgG1, kappa, V domains shown)
VH: B4 VH
VL: B4 VL with S9D, S49P, A66D, R83S, V84L
B11: humanized antibody Hz515H7 VH1 D76N VL2.1 (antibody, human IgG1, kappa, V domains shown)
VH: B4 VH
VL: B4 VL with S9D, S49P, A66D, T69S
B12: anti-CXCR4 Mab 515H7 (antibody, V domains shown)
VH: B6 VH
VL: DIVMSQSPSSLAVSAGEKVTMSCKSSQSLFNSRTRKNYLAWYQQKPGQSPKLLIYWASARDSGVPARFTGSGSETYFTLTISRVQAEDLAVYYCMQSFNLRTFGGGTKLEIK

Key:
[1] = target: T1, human CXCR4 receptor (wild type) (human, UniProt P61073 1-352); assay: cell-based or functional assay
[2] = target: T1, human CXCR4 receptor (wild type); assay: SPA competition, Mab 100 nM, labelled competitor [125I]SDF-1 (1 nM), CHO-K1/human CXCR4 membranes
Experimental: CHO-K1 cells, stably and constitutively expressing human CXCR4 receptor were obtained upon transfection of naïve CHO-K¹ cells (ATCC CCL-61) with a mammalian expression vector carrying the whole coding sequence of human CXCR4 receptor (RefSeq NM_{—}003467). Cells were propagated in complete culture medium [DMEM-Ham's F12 supplemented with 5% fetal calf serum (FCS) and 500 μg/ml of geneticin]. Radioligand binding experiments were conducted on cell membranes obtained upon mechanical scrapping of CHO/CXCR4 cells in lysis buffer [Hepes 20 mM, pH 7.4, NaCl 150 mM] followed by centrifugation (10000 g, 15 min). […] Upon centrifugation [1000 g for 10 min.] radioactive counts were measured in a scintillation counter (TopCount, Perkin Elmer).

[3] = target: T2, CXCR2:YFP fusion protein (UniProt P25025 1-360); assay: BRET in transiently transfected HEK293 cells
T2 construct: whole, on cells; Transiently expressed in HEK293 cells for BRET; not shown: Yellow fluorescent protein (EYFP)
T2 sequence (looked up): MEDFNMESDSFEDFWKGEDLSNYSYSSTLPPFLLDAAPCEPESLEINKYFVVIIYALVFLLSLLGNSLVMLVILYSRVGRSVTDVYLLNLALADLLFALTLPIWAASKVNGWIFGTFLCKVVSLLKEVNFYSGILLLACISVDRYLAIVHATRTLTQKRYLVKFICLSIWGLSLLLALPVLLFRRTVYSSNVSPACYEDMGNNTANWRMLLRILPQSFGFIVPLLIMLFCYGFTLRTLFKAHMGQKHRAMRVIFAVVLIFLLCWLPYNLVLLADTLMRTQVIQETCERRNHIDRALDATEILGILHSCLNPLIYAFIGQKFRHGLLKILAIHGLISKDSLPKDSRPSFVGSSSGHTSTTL

[4] = target: T1, human CXCR4 receptor (wild type); assay: flow cytometry competition with biotinylated murine 515H7 on CXCR4 transfected NIH3T3 cells

Binder	IC50, [35S]GTPγS binding, Hela cells, SDF-1 10 nM [1]	IC50, [35S]GTPγS binding, NIH3T3/CXCR4 cells, SDF-1 10 nM [1]	inhibition of SDF-1-induced BRET increase (CXCR4 homo-dimers) [1]	inhibition of SDF-1-induced β-arrestin recruitment (BRET) [1]	% of inhibition of [35S]GTPγS binding stimulated by SDF-1 (100 nM) [1]	IC50, [35S]GTPγS binding, NIH3T3/CXCR4 cells [1]	percentage of inhibition of SDF-1-induced BRET increase (CXCR4 homo-dimers) [1]	further results
B1	0.5 nM	1.6 nM	63%	~20%	–	–	–	–
B2	0.3 nM	1.1 nM	75%	~63%	–	–	–	decrease in SDF-1-induced U937 cells migration [1]: ~50%; % inhibition of [125I]SDF-1 [2]: 21%
B3	–	–	–	–	–	–	–	binding result [3]: binds
B4	–	–	–	~94%	86%	3.86 nM	~88%	–
B5	–	–	–	–	–	–	–	binding result [4]: binds
B6	0.6 nM	1.5 nM	96%	93%	71%	–	–	decrease in SDF-1-induced U937 cells migration [1]: > 80%; % inhibition of [125I]SDF-1 [2]: 55%
B7	–	–	–	~82%	66%	5.19 nM	~33%	–
B8	–	–	–	–	–	–	–	binding result [4]: binds
B9	–	–	–	–	–	–	–	binding result [4]: binds
B10	–	–	–	~71%	58%	8.5 nM	~21%	–
B11	–	–	–	~81%	69%	4.05 nM	~65%	–
B12	0.2 nM	1.9 nM	69%	95%	71%	–	–	decrease in SDF-1-induced U937 cells migration [1]: > 80%
